The record followed here is patent US20020031818A1 (published 2002).

This assay concerns the target GST-Mdm2, wild type, bacterially expressed and purified (pGEX-4T-1) (human, UniProt Q00987 1-491). The assay can be described thus: cell-based or functional assay.

Sequence of GST-Mdm2, wild type, bacterially expressed and purified (pGEX-4T-1) (Q00987 whole entry): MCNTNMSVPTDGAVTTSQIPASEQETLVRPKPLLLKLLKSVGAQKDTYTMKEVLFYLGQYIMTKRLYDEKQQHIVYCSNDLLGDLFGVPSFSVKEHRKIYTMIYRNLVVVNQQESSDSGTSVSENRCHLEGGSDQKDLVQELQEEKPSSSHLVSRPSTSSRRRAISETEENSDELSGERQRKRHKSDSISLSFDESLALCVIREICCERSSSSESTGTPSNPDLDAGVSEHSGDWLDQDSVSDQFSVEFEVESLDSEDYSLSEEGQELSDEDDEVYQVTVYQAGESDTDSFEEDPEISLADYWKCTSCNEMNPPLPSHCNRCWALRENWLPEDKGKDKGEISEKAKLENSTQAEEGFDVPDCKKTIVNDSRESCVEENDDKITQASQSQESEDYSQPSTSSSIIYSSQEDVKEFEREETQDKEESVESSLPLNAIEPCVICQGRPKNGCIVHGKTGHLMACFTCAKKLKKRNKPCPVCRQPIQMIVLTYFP

B1: p19^ARF, wild type (other, UniProt Q64364 1-169, looked up)
chain: MGRRFLVTVRIQRAGRPLQERVFLVKFVRSRRPRTASCALAFVNMLLRLERILRRGPHRNPGPGDDDGQRSRSSSSAQLRCRFELRGPHYLLPPGARRSAGRLPGHAGGAARVRGSAGCARCLGSPAARLGPRAGTSRHRAIFAFRWVLFVFRWVVFVYRWERRPDRRA
For B1, the “molar ratio required for inhibition of Mdm2 sumoylation” value is ~1 molar ratio p19^ARF:Mdm2.
